In patent US20250179208A1 (ZONHON BIOPHARMA INSTITUTE, published 2025):
Where a chain is given by its changes, count along the chain named.

T1: CD3 protein
T1 chain 1: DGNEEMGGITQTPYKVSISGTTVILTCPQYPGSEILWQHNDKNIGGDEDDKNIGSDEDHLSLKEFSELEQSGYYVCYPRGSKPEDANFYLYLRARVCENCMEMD
T1 chain 2: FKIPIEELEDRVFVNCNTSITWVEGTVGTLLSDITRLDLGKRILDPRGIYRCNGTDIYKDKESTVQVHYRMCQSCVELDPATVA

B1: 19G293 (anti-CD26-CD3 humanized bispecific antibody derived from No. 62 mouse antibody) (bispecific antibody)
chain: QVQLVQSGAELVKPGASVKLSCKASGFNIKDTYIYWVRQAPGQGLEWIGRIEPMNGNTKYDPKFQGRVTMTANTSINTAYLELSSLRSEDTAVYYCSRGGWLLLYVMDYWGQGTLVTVSSGGGGSGGGGSGGGGSDIVMTQSPLSLSVTPGEPASISCRSDKSLLHSNGNTYLYWFLQKPGQSPQVLIYRMSNLASGVPDRFSGSGSGTDFTLKISRVEAEDVGVYYCFQQLEYPYTFGQGTKLEIKGGGGSDVQLVQSGAEVKKPGASVKVSCKASGYTFTRYTMHWVRQAPGQGLEWIGYINPSRGYTNYADSVKGRFTITTDKSTSTAYMELSSLRSEDTATYYCARYYDDHYCLDYWGQGTTVTVSSGGGGSGGGGSGGGGSDIVLTQSPATLSLSPGERATLSCRASQSVSYMNWYQQKPGKAPKRWIYDTSKVASGVPARFSGSGSGTDYSLTINSLEAEDAATYYCQQWSSNPLTFGGGTKVEIK
B2: 19G296 (anti-CD26-CD3 humanized bispecific antibody derived from No. 212 mouse antibody) (bispecific antibody)
chain: QVQLQESGPGLVKPSETLSLTCTVSGDSITSGYWHWIRQPPGKGLEWIGYINYSGYTYYNPSLKSRFTISRDTSKNQYYLQLNSVTAEDTAVYYCTSERNWGAFAYWGQGTLVTVSSGGGGSGGGGSGGGGSENVLTQSPATLSASPGERATLSCRASSSVISTYLHWYQQKPGQAPKLWIYSTSNLASGVPARFSGSGSGTDYTLTISSVEPEDFAVYYCQQFSGYPYTFGQGTKLEIKGGGGSDVQLVQSGAEVKKPGASVKVSCKASGYTFTRYTMHWVRQAPGQGLEWIGYINPSRGYTNYADSVKGRFTITTDKSTSTAYMELSSLRSEDTATYYCARYYDDHYCLDYWGQGTTVTVSSGGGGSGGGGSGGGGSDIVLTQSPATLSLSPGERATLSCRASQSVSYMNWYQQKPGKAPKRWIYDTSKVASGVPARFSGSGSGTDYSLTINSLEAEDAATYYCQQWSSNPLTFGGGTKVEIK
B3: 19G297 (anti-CD26-CD3 humanized bispecific antibody derived from No. 212 mouse antibody) (bispecific antibody)
chain: B2 chain with Q1E, E16G, T23A, P40A, I48V, T142S, A151V, L153I, S154T, V218T
B4: 17G29 (anti-CD26-CD3 humanized bispecific antibody derived from YS110) (bispecific antibody)
chain: EVQLVESGAGVKQPGGTLRLTCTASGFSLTTYGVHWVRQAPGKGLEWVGVIWGDGRTDYDAAFMSRVTISKDTSKSTVYLQMNSLRAEDTAVYYCMRNRHDWFDYWGQGTTVTVSSGGGGSGGGGSGGGGSDILLTQSPSSLSATPGERATITCRASQGIRNNLNWYQQKPGQAPRLLIYYSSNLQSGVPSRFSGSGSGTDFTLTISRLQPEDVAAYYCQQSIKLPFTFGSGTKVEIKGGGGSDVQLVQSGAEVKKPGASVKVSCKASGYTFTRYTMHWVRQAPGQGLEWIGYINPSRGYTNYADSVKGRFTITTDKSTSTAYMELSSLRSEDTATYYCARYYDDHYCLDYWGQGTTVTVSSGGGGSGGGGSGGGGSDIVLTQSPATLSLSPGERATLSCRASQSVSYMNWYQQKPGKAPKRWIYDTSKVASGVPARFSGSGSGTDYSLTINSLEAEDAATYYCQQWSSNPLTFGGGTKVEIK
notes: also called positive control
B5: 19G292 (anti-CD26-CD3 humanized bispecific antibody derived from No. 62 mouse antibody) (bispecific antibody)
chain: QVQLLQSGAEVVKPGASVKISCKASGFNIKDTYIYWVKQPTGQGLEWIGRIEPMNGNTKYDPKFQGRFTMTANTSINTAYLQLSSLTSEDTAVYYCSRGGWLLLYVMDYWGQGTTVTVSSGGGGSGGGGSGGGGSDIVMTQSASSLPVTPGESVSISCRSDKSLLHSNGNTYLYWFLQRPGQSPQVLIYRMSNLASGVPDRFSGSGSGTEFTLTISRVEAEDVGVYYCFQQLEYPYTFGPGTKLEIKGGGGSDVQLVQSGAEVKKPGASVKVSCKASGYTFTRYTMHWVRQAPGQGLEWIGYINPSRGYTNYADSVKGRFTITTDKSTSTAYMELSSLRSEDTATYYCARYYDDHYCLDYWGQGTTVTVSSGGGGSGGGGSGGGGSDIVLTQSPATLSLSPGERATLSCRASQSVSYMNWYQQKPGKAPKRWIYDTSKVASGVPARFSGSGSGTDYSLTINSLEAEDAATYYCQQWSSNPLTFGGGTKVEIK
B6: 17G131 (anti-CD26-CD3 chimeric bispecific antibody derived from No. 51 mouse antibody) (bispecific antibody)
chain: DIQMTQSPASLSASVGESVTITCRASENIYSYLTWYQQKQGKSPQLLVYNAKTLTEDVPSRFSGSGSGTQFSLKINSLQPEDFGSYYCQHHYGSPRTFGGGTKLEIKGGGGSGGGGSGGGGSQAQLQQSGAELMKPGASVKISCKATGYTFSNFWIEWVVQRPGHGLEWIGEILPGRGTTNYNEKFRGKATFTADTSSDTAYIQLSSLTSEDSAVYYCARERFYGSKYFDVWGAGTTVTVSSGGGGSDVQLVQSGAEVKKPGASVKVSCKASGYTFTRYTMHWVRQAPGQGLEWIGYINPSRGYTNYADSVKGRFTITTDKSTSTAYMELSSLRSEDTATYYCARYYDDHYCLDYWGQGTTVTVSSGGGGSGGGGSGGGGSDIVLTQSPATLSLSPGERATLSCRASQSVSYMNWYQQKPGKAPKRWIYDTSKVASGVPARFSGSGSGTDYSLTINSLEAEDAATYYCQQWSSNPLTFGGGTKVEIK
notes: also called chimeric BiTE
B7: 18G272 (anti-CD26-CD3 humanized bispecific antibody derived from No. 62 mouse antibody) (bispecific antibody)
chain: DIVMTQSASSLPVTPGEPASISCRSDKSLLHSNGNTYLYWFLQKPGQSPQVLIYRMSNLASGVPDRFSGSGSGTDFTLTISRVEAEDVGVYYCFQQLEYPYTFGQGTKLEIKGGGGSGGGGSGGGGSQVQLVQSGAEVVKPGASVKISCKASGFNIKDTYIYWVRQRTGQGLEWIGRIEPMNGNTKYDPKFQGRLTMTANTSKNTAYLQLSSLTSEDTAVYYCSRGGWLLLYVMDYWGQGTTVTVSSGGGGSDVQLVQSGAEVKKPGASVKVSCKASGYTFTRYTMHWVRQAPGQGLEWIGYINPSRGYTNYADSVKGRFTITTDKSTSTAYMELSSLRSEDTATYYCARYYDDHYCLDYWGQGTTVTVSSGGGGSGGGGSGGGGSDIVLTQSPATLSLSPGERATLSCRASQSVSYMNWYQQKPGKAPKRWIYDTSKVASGVPARFSGSGSGTDYSLTINSLEAEDAATYYCQQWSSNPLTFGGGTKVEIK

Tests used:
[1] = biological target: CD26 on CD26 positive human tumor cells (human, UniProt P27487 1-766); experiment: cell-based or functional assay
[2] = biological target: T1, CD3 protein; experiment: BLI (Octet), biotinylated CD3 on SA sensor, antibody 200-1600 nM
Procedure: CD3 protein was biotinylated with EZ-link NHS-PEG12-Biotin. Biotinylated CD3 protein was immobilized to SA biosensor. Equilibrated in 1×Kinetics solution. The CD3 immobilized to SA biosensor was combined with the humanized bispecific antibody solution to be detected. The concentration gradient of humanized bispecific antibody was 200 nM, 400 nM, 800 nM, and 1600 nM. The biosensor was dissociated in 1×Kinetics solution. Fortebio Data Analysis 8.0 software was used for data analysis and affinity constant values were calculated.

[3] = biological target: T2, CD26 protein (recombinant human CD26) (human, UniProt P27487 29-766, limits assumed); experiment: BLI (Octet), biotinylated CD26 on SA sensor, antibody 31.3-500 nM
T2 construct: Amine-coupled, biotinylated or HRP-labeled according to the assay; also called DPP4; rCD26
Procedure: CD26 protein was biotinylated with EZ-link NHS-PEG12-Biotin. Biotinylated CD26 protein was immobilized to SA biosensor. Equilibrated in 1×Kinetics solution. The CD26 immobilized to SA biosensor was combined with the antibody solution to be detected. The concentration gradients of the antibody solution were 31.3 nM, 62.5 nM, 125 nM, 250 nM, and 500 nM. The biosensor was dissociated in 1×Kinetics solution. Fortebio Data Analysis 8.0 software was used for data analysis and affinity constant values were calculated.

[4] = biological target: T2, CD26 protein (recombinant human CD26); experiment: BLI (Octet QKe), CD26 amine-coupled on AR2G sensor, antibody at 181.8 nM
Procedure: The affinity of the chimeric antibody to the antigen protein CD26 was detected by Fortebio Intermolecular Interaction Octet QKe instrument. First, the amino-coupled biosensor AR2G was activated with EDC/s-NHS, and the activated biosensor AR2G was solidified in CD26 protein solution diluted with 10 mM sodium acetate (pH 5.0) solution. The biosensor solidified with CD26 was quenched in 1M ethanolamine (pH8.5) solution. Then equilibrated in 1× kinetic solution. After equilibration, it was bound to a humanized bispecific antibody solution. It was dissociated in 1× kinetic solution. Fortebio Data Analysis 8.0 software was used to analyze the data and calculate the affinity constant (KD), association rate constant (kon) and dissociation rate constant (kdis). The Response value represents the number of antibody molecules that can bind to the antigen. Kon indicates the binding speed of the antibody to the corresponding receptor. Kdis represents the dissociation speed of antibody from corresponding receptor. NA indicates no valid data.

Binder | IC50 of antibody mediated PBMC cytotoxicity against 786-0 cells [1] [ng/mL] | IC50 of antibody mediated PBMC cytotoxicity against NCI-H226 cells [1] [ng/mL] | IC50 of antibody mediated PBMC cytotoxicity against OS-RC-2 cells [1] [ng/mL] | IC50 of antibody mediated PBMC cytotoxicity against PC-3 cells [1] [ng/mL] | Kd [2] [nM] | koff [2] [s⁻¹] | kon [2] [M⁻¹ s⁻¹] | Kd [3] [nM] | kon [3] [M⁻¹ s⁻¹] | koff [3] [s⁻¹] | Kd [4] [nM] | Response [4] | koff [4] [s⁻¹] | kon [4] [M⁻¹ s⁻¹]
B1 | 0.974 | 0.405 | 2.25 | 0.565 | 1.73 | 0.000571 | 331000 | < 0.001 | 54600 |  |  |  |  | 
B2 |  |  |  |  | 9.67 | 0.00225 | 233000 | 14.8 | 94500 | 0.0014 |  |  |  | 
B3 |  |  |  |  | 10.1 | 0.00367 | 362000 | 4.4 | 91800 | 0.00037 |  |  |  | 
B4 | 1.03 | 0.918 | 0.958 | 1.14 | 12.2 |  |  | 1.18 | 183000 | 0.000216 |  |  |  | 
B5 | 0.805 | 1.1 | 1.04 | 0.339 | 0.568 | 0.000107 | 188000 | < 0.001 | 65800 |  |  |  |  | 
B6 |  |  |  |  |  |  |  |  |  |  | 43.6 | 0.15 | 0.000829 | 19000
B7 | 2.27 | 0.143 | 0.284 | 0.379 |  |  |  |  |  |  |  |  |  | 
